Results reported in paper PMC3708937, “Function of FlhB, a Membrane Protein Implicated in the Bacterial Flagellar Type III Secretion System” (PLoS ONE, 2013).
Positions count from the first letter of the chain named. Names may count otherwise.

Tests used:
[1] = molecular target: T1, Salmonella FliC (flagellin) (Salmonella enterica serovar Typhimurium, UniProt P06179 1-495); test: SPR; Biacore T100; AquFlhBC or FliC amine-coupled to a CM5 chip; FliS or FliS A22T flowed at 30 µl/min for 12 min; 10 mM HEPES pH 7.4, 150 mM NaCl, 0.05% (v/v) Surfactant P20; 25°C; steady-state analysis, 1:1 binding model; conditions: both partners purified
T1 construct: FliC (flagellin), major component of the flagellar filament, Salmonella enterica serovar Typhimurium
T1 sequence (P06179 whole entry): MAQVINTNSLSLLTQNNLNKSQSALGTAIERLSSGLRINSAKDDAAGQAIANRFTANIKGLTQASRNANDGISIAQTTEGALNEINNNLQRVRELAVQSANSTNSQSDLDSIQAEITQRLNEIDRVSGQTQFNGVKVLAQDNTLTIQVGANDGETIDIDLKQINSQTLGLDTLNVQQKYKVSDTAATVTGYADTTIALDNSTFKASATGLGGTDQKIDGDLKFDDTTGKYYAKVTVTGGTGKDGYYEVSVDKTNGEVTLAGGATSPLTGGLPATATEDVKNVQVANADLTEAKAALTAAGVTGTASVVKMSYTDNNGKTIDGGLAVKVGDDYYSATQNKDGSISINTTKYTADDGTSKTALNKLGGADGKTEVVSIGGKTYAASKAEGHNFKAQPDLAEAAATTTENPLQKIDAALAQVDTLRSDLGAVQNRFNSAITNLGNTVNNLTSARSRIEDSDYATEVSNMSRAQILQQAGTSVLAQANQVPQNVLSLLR

[2] = molecular target: T2, Aquifex FlhBC (C-terminal cytoplasmic domain of Aquifex aeolicus FlhB) (Aquifex aeolicus, UniProt O67813 213-350); test: as above; conditions: both partners purified
T2 construct: FlhB of Aquifex aeolicus, cytoplasmic domain FlhBC; also called AquFlhBC; source: purified as described previously [14]
T2 sequence (looked up): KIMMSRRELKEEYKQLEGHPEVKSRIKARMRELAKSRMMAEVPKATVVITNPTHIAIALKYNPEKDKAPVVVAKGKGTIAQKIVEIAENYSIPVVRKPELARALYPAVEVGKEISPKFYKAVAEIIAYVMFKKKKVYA

B1: Salmonella FliS (wild type) (natural protein)
chain: MYTASGIKAYAQVSVESAVMSASPHQLIEMLFDGANSALVRARLFLEQGDVVAKGEALSKAINIIDNGLKAGLDQEKGGEIATNLSELYDYMIRRLLQANLRNDAQAIEEVEGLLSNIAEAWKQISPKASFQESR
notes: FliS, flagellin-specific chaperone of Salmonella enterica serovar Typhimurium; also called wild-type FliS
[1]
  Kd: 0.7 µM
[2]
  Kd: 169 µM

B2: Salmonella FliS A22T (natural protein)
chain: B1 chain with A22T
notes: FliS of Salmonella enterica serovar Typhimurium with the point mutation A22T; The mutation arose as a spontaneous extragenic suppressor in the laboratory strain CB351; expression and purification of the protein are not described; also called FliS mutant A22T; fliS22264(A22T)
[1]
  Kd: 11.9 µM
[2]
  Kd: 304 µM
